The values that follow come from patent publication US20230250167A1 (published 2023).

“And” between values parts separate entries of the source, which are not always exact repeats. Equal entries are not always repeated.

Assay [1] deals with human ILT7 expressed on transfected cells (human, UniProt P59901 24-499). The experiment in a line: cell-based or functional assay.
Assay [2] concerns the target T1, cynomolgus ILT7 expressed on transfected cells (cynomolgus, UniProt P59901 24-499 (human entry)).
T1 construct: also called cyno ILT7; CynoILT7 CT-125 cells
The experiment in a line: flow cytometry on CT-125 cells expressing cynomolgus ILT7. On the procedure: Binding of anti-ILT7 variants and isotype controls on human and cynomolgus ILT7 was assessed by flow cytometry analysis using CT-550 and cynoILT7 CT-125 cells respectively. CT-125 cells were used as control. Cells were resuspended in Blocking Buffer (PBS supplemented with 10% FBS) at a concentration of 5 million cells per mL and transferred into a round-bottom 96-well plates (BD Falcon™ Clear Microtest Plate, BD Biosciences) at 100 μL per well. Anti-ILT7 variants and control antibodies were added onto the cells for 30 min at 4° C. on a plate shaker. Cells were washed three times with PBS and resuspended in Blocking Buffer (100 μL/well). Human IgG binding on cell surface was detected using a secondary anti-human IgG antibody conjugated to DyLight 649 (1 in 1000 dilution). Cells were incubated in the dark for 30 min at 4° C. on a plate shaker. Cells were washed three times with PBS and surface fluorescence was acquired using LSRII Flow Cytometry System and FACSDiva Software (both from BD Biosciences).
The resultant IgG1s were tested to confirm that the sequence changes incorporated into ILT70080 and ILT70083 and had not adversely impacted the binding of the parent antibody to cells expressing human ILT7 (CT-550 cells) or cynomolgus ILT7 (CT-125 cells). The variants were screened for binding by flow cytometry. […] However, five ILT70083 variants (ILT70083.4, ILT70083.9, ILT70083.3, ILT70083.6, and ILT70083.8) had improved binding capacity compared to the parental antibody for cynomolgus ILT7.
(In general: In flow cytometry, cells or beads pass a laser one at a time.)

Assay [3] deals with T1, cynomolgus ILT7 expressed on …. The experiment in a line: cell-based or functional assay.

human ILT7 expressed on transfected cells, sequence (P59901 24-499): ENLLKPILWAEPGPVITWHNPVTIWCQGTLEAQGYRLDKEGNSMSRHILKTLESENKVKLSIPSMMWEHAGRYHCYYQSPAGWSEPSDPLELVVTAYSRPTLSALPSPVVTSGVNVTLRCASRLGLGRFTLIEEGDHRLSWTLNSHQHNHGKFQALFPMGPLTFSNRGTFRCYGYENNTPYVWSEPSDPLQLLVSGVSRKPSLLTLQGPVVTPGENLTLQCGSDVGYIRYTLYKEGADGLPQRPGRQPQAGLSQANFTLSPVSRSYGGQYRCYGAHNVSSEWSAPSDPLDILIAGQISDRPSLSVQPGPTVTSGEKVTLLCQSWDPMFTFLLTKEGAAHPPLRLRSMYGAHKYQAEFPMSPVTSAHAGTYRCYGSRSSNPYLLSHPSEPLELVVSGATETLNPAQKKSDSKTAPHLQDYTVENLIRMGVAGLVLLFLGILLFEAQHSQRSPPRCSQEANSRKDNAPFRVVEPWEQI
T1 sequence (P59901 other isoform, or with tags, fused parts or gaps limits assumed): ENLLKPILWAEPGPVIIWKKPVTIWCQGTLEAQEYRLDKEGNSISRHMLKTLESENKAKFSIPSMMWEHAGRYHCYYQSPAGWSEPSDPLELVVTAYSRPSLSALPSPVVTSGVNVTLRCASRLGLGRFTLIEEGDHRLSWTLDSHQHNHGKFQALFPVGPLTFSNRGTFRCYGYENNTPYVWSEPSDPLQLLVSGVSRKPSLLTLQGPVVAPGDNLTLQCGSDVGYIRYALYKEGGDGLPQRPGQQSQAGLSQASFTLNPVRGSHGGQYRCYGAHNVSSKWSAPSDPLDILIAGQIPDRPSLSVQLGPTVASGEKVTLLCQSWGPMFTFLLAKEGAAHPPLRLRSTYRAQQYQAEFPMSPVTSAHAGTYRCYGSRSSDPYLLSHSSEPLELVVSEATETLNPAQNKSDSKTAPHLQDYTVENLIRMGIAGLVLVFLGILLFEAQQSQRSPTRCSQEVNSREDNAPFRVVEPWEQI

B1: ILT70083.1 (antibody, V domains shown)
VH: EVQLLESGGGLVQPGGSLRLSCAASGFTFSSYAMSWVRQAPGKGLEWVSAISGSGGSTYYADSVKGWFTISRDNSKNTLYLQMNSLRAEDTAVYYCARRTYYYDSDGHSDVFDIWGRGTLVTVSS
VL: QSVVTQPPSVSAAPGQKVTISCSGSASNIGSNFVSWYQQLPGTAPKLLIYDNDKRDLGIPDRFSASISSTSATLGITGLQTGDEADYYCGTWDTSLTVGVFGGGTKLTVL
B1: the “ADCC potency EC50” value in assay [1] was greater than 89 µM.

B2: ILT70083.3 (antibody, V domains shown)
VH: EVQLLESGGGLVQPGGSLRLSCAASGFTFSSYAMSWVRQAPGKGLEWVSAISGSGGSTYYADSVKGWFTISRDNSKNTLYLQMNSLRAEDTAVYYCARRTYYYDSDGHSDVFDIWGRGTLVTVSS
VL: QSVVTQPPSVSAAPGQKVTISCSGSASNIGSNFVSWYQQLPGTAPKLLIYDNDKRDLGIPDRFSGSKSGTSATLGITGLQTGDEADYYCGTWDTSLTVGVFGGGTKLTVL
notes: Engineered (germlined) ILT70083 IgG1 variant; also called ILT70083 variant
For the molecule B2, the “ADCC potency EC50” value in assay [1] was greater than 89 µM. Moreover, the binding result in assay [2] is “binds”.

B3: ILT70083.5 (antibody, V domains shown)
VH: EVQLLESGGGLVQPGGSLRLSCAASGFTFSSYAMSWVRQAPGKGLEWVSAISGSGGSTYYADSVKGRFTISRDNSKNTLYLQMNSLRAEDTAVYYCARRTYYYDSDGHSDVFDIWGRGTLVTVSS
VL: QSVVTQPPSVSAAPGQKVTISCSGSASNIGSNFVSWYQQLPGRAPKLLIYDNDKRDLGIPDRFSASISSTSAALAITGLQTEDEADYYCGTWDTSLTVGVFGGGTKLTVL
For the molecule B3, the “ADCC potency EC50” value in assay [1] was greater than 89 µM.

B4: ILT70083.6 (antibody, V domains shown)
VH: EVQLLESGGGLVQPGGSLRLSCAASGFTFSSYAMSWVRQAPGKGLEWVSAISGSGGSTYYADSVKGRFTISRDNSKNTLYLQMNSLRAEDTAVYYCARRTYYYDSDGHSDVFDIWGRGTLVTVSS
VL: QSVVTQPPSVSAAPGQKVTISCSGSASNIGSNFVSWYQQLPGTAPKLLIYDNDKRDLGIPDRFSASISSTSATLGITGLQTGDEADYYCGTWDTSLTVGVFGGGTKLTVL
notes: as for B2
As to B4, the “ADCC potency EC50” value in assay [1] is greater than 89 µM. Besides, the binding result in assay [2] is “binds”.

B5: ILT70083.2 (antibody, V domains shown)
VH: EVQLLESGGGLVQPGGSLRLSCAASGFTFSSYAMSWVRQAPGKGLEWVSAISGSGGSTYYADSVKGWFTISRDNSKNTLYLQMNSLRAEDTAVYYCARRTYYYDSDGHSDVFDIWGRGTLVTVSS
VL: QSVLTQPPSVSAAPGQKVTISCSGSASNIGSNFVSWYQQLPGTAPKLLIYDNDKRDLGIPDRFSASISSTSATLGITGLQTGDEADYYCGTWDTSLTVGVFGGGTKLTVL
For the molecule B5, the “ADCC potency EC50” value in assay [1] was greater than 89 µM.

B6: ILT70083.7 (antibody, V domains shown)
VH: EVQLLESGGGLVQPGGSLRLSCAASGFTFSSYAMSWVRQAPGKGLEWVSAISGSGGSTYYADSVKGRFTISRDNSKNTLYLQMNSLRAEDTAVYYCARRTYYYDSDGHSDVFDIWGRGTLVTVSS
VL: QSVLTQPPSVSAAPGQKVTISCSGSASNIGSNFVSWYQQLPGTAPKLLIYDNDKRDLGIPDRFSASISSTSATLGITGLQTGDEADYYCGTWDTSLTVGVFGGGTKLTVL
On to B6, for which the “ADCC potency EC50” value in assay [1] was greater than 89 µM.

B7: ILT70083.8 (antibody, V domains shown)
VH: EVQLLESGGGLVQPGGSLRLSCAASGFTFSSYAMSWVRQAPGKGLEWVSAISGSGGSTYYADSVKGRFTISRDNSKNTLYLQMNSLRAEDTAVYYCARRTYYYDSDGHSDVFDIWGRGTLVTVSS
VL: QSVVTQPPSVSAAPGQKVTISCSGSASNIGSNFVSWYQQLPGTAPKLLIYDNDKRDLGIPDRFSGSKSGTSATLGITGLQTGDEADYYCGTWDTSLTVGVFGGGTKLTVL
notes: as for B2
B7: in assay [1], the “ADCC potency EC50” value was greater than 89 µM. In addition, the binding result in assay [2] was “binds”.

B8: ILT70083.9 (antibody, V domains shown)
VH: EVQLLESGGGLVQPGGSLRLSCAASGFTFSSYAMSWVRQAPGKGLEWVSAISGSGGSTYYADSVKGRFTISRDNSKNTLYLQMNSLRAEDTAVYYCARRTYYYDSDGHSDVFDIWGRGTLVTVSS
VL: QSVLTQPPSVSAAPGQKVTISCSGSASNIGSNFVSWYQQLPGTAPKLLIYDNDKRDLGIPDRFSGSKSGTSATLGITGLQTGDEADYYCGTWDTSLTVGVFGGGTKLTVL
notes: as for B2
B8: in assay [1], the “ADCC potency EC50” value was greater than 89 µM. Further, in assay [2], the binding result is given as “binds”.

B9: ILT70083.4 (antibody, V domains shown)
VH: EVQLLESGGGLVQPGGSLRLSCAASGFTFSSYAMSWVRQAPGKGLEWVSAISGSGGSTYYADSVKGWFTISRDNSKNTLYLQMNSLRAEDTAVYYCARRTYYYDSDGHSDVFDIWGRGTLVTVSS
VL: QSVLTQPPSVSAAPGQKVTISCSGSASNIGSNFVSWYQQLPGTAPKLLIYDNDKRDLGIPDRFSGSKSGTSATLGITGLQTGDEADYYCGTWDTSLTVGVFGGGTKLTVL
notes: as for B2
As to B9, in assay [1], the “ADCC potency EC50” value was greater than 89 µM. Further, in assay [2], the binding result is recorded as “binds”.

B10: afucosylated IgG1 ILT70137 (antibody, V domains shown)
VH: QVQLQQSGAEVKKPGASVKVSCKASGYTFTSYGISWVRQAPGQGLEWMGWISAYNGNTNYAQKLQGRVTMTTDTSTSTAYMELRSLRSDDTAVYYCARNGLWGWDSDAFDIWGRGTLVTVSS
VL: QSALTQPASVSGSPGQSITISCTGTSSDVGGYNYVSWYQQHPGKAPKLMIYDVSNRPSGVSNRFSGSKSGNTASLTISGLQAEDEADYYCSSYTSSSTVVFGGGTKVTVL
modifications: afucosylated (made as in Example 7: lacks the α-1,6 fucose moiety on the N-glycan at Asn-297 of the heavy chain)
As to B10, the results for the “ADCC EC50” value in assay [3] and in assay [1] were 1.89 µM and 4.19 µM, respectively.

B11: ILT70080.2 (antibody, V domains shown)
VH: QVQLVQSGAEVKKPGSSVKVSCKASGDSFRNYAVSWVRQAPGQGLEWMGAMMPSFGTREHSQQFQGRVTLSADESTSTAYMELSSLRSEDTAVYYCAGSRDYNAYHFWTGPPDFWGRGTLVTVSS
VL: SYVLTQPPSVSVAPGKTARITCGGDSVGSTSVHWYQQKPGQAPVMVMFYNSDRPSGIPERFSGSISGNTATLTISRVEAGDEADYYCQVWDTSSDHPEFGGGTKLTVL
notes: Engineered (germlined) ILT70080 variant tested as IgG1; also called ILT70080 variant
Consider B11, for which the “ADCC potency EC50” value in assay [1] was less than 14.1 µM. The binding result in assay [2] is “binds”.

B12: ILT70080.7 (antibody, V domains shown)
VH: QVQLVQSGAEVKKPGSSVKVSCKASGDSFRNYAVSWVRQAPGQGLEWMGAMMPSFGTREHSQQFQGRVTLTADESTSTAYMELSSLRSEDTAVYYCAGSRDYNAYHFWTGPPDFWGRGTLVTVSS
VL: SYVLTQPPSVSVAPGKTARITCGGDSVGSTSVHWYQQKPGQAPVLVMFYNSDRPSGIPERFSGSNSGNTATLTISRVEAGDEADYYCQVWDTSSDHPEFGGGTKLTVL
notes: as for B11
Take B12: the “ADCC potency EC50” value in assay [1] is < 14.1 µM and 7.8 µM. The binding result in assay [2] is “binds”.

B13: ILT70080.5 (antibody, V domains shown)
VH: QVQLVQSGAEVKKPGSSVKVSCKASGDSFRNYAVSWVRQAPGQGLEWMGAMMPSFGTREHSQQFQGRVTLTADESTSTAYMELSSLRSEDTAVYYCAGSRDYNAYHFWTGPPDFWGRGTLVTVSS
VL: SYVLTQPPSVSVAPGKTARITCGGDSVGSTSVHWYQQKPGQAPVMVMFYNSDRPSGIPERFSGSNSGNTATLTISRVEAGDEADYYCQVWDTSSDHPEFGGGTKLTVL
notes: as for B11
B13: the “ADCC potency EC50” value in assay [1] is < 14.1 µM and 8.6 µM. Besides, the binding result in assay [2] is “binds”.

B14: ILT70080.6 (antibody, V domains shown)
VH: QVQLVQSGAEVKKPGSSVKVSCKASGDSFRNYAVSWVRQAPGQGLEWMGAMMPSFGTREHSQQFQGRVTLTADESTSTAYMELSSLRSEDTAVYYCAGSRDYNAYHFWTGPPDFWGRGTLVTVSS
VL: SYVLTQPPSVSVAPGKTARITCGGDSVGSTSVHWYQQKPGQAPVLVIYYNSDRPSGIPERFSGSNSGNTATLTISRVEAGDEADYYCQVWDTSSDHPEFGGGTKLTVL
notes: as for B11
As for B14, the “ADCC potency EC50” value in assay [1] is < 14.1 µM and 6.9 µM. Further, in assay [2], the binding result was “binds”.

B15: ILT70080.1 (antibody, V domains shown)
VH: QVQLVQSGAEVKKPGSSVKVSCKASGDSFRNYAVSWVRQAPGQGLEWMGAMMPSFGTREHSQQFQGRVTLTADESTSTAYMELSSLRSEDTAVYYCAGSRDYNAYHFWTGPPDFWGRGTLVTVSS
VL: SYVLTQPPSVSVAPGKTARITCGGDSVGSTSVHWYQQKPGQAPVMVMFYNSDRPSGIPERFSGSISGNTATLTISRVEAGDEADYYCQVWDTSSDHPEFGGGTKLTVL
notes: as for B11
Take B15: in assay [1], the “ADCC potency EC50” value is < 14.1 µM and 8 µM and 10 µM. Besides, in assay [2], the binding result is “binds”.

B16: ILT70080.3 (antibody, V domains shown)
VH: QVQLVQSGAEVKAPGTSVKVSCKASGDSFRNYAVSWVRQAPGQGLEWMGAMMPSFGTREHSQQFQGRVTLSADESTSTAYMELSSLRSEDTAVYYCAGSRDYNAYHFWTGPPDFWGRGTLVTVSS
VL: SYVLTQPPSVSVAPGKTARITCGGDSVGSTSVHWYQQKPGQAPVMVMFYNSDRPSGIPERFSGSISGNTATLTISRVEAGDEADYYCQVWDTSSDHPEFGGGTKLTVL
notes: as for B11
For B16, the “ADCC potency EC50” value in assay [1] is < 14.1 µM and 11 µM. In addition, the binding result in assay [2] is given as “binds”.

B17: afucosylated ILT70080.6 (antibody, V domains shown)
VH: QVQLVQSGAEVKKPGSSVKVSCKASGDSFRNYAVSWVRQAPGQGLEWMGAMMPSFGTREHSQQFQGRVTLTADESTSTAYMELSSLRSEDTAVYYCAGSRDYNAYHFWTGPPDFWGRGTLVTVSS
VL: SYVLTQPPSVSVAPGKTARITCGGDSVGSTSVHWYQQKPGQAPVLVIYYNSDRPSGIPERFSGSNSGNTATLTISRVEAGDEADYYCQVWDTSSDHPEFGGGTKLTVL
modifications: afucosylated (no core fucose on the Fc N-glycan)
As to B17, the results for the “ADCC EC50” value in assay [3] and in assay [1] were 0.44 µM and 1.12 µM, respectively.

B18: ILT70080.4 (antibody, V domains shown)
VH: QVQLVQSGAEVKAPGTSVKVSCKASGDSFRNYAVSWVRQAPGQGLEWMGAMMPSFGTREHSQQFQGRVTLSADESTSTAYMELSSLRSEDTAVYYCAGSRDYNAYHFWTGPPDFWGRGTLVTVSS
VL: SYELTQPPSVSVAPGKTAKISCGGDSVGSTSVHWYQQKPGQAPVMVMFYNSDRPSGIPERFSGSISGNTATLTISRVEAGDEADYYCQVWDTSSDHPEFGGGTKLTVL
notes: as for B11
As for B18, the “ADCC potency EC50” value in assay [1] is < 14.1 µM and 11.9 µM. For the same molecule, the binding result in assay [2] was “binds”.
